B1: Cytochrome c2, P00094 (parent)
chain: MKISLTAATVAALVLAAPAFAGDAAKGEKEFNKCKTCHSIIAPDGTEIVKGAKTGPNLYGVVGRTAGTYPEFKYKDSIVALGASGFAWTEEDIATYVKDPGAFLKEKLDDKKAKTGMAFKLAKGGEDVAAYLASVVK

The variants in the series derive from B1. Particulars: Rhodobacter capsulatus (strain ATCC BAA-309 / NBRC 16581 / SB1003); pH 7.5; 25 °C; GdnHCl; CD; Tris-HCl 20 mM; NaCl 40 mM; structure 1C2R; whole UniProt chain shown.

From FireProtDB (doi:10.1021/bi00102a015) come the findings set out here.

Take K33D: the “ddG of mutation (higher = less stable)” value came to 1.1 kcal/mol, the denaturant m value amounted to 2.8 kcal/mol/M, the “denaturant midpoint (higher = more stable)” value (“denaturant midpoint” below) is 1.2 M and the unfolding free energy is 3.3 kcal/mol.

K35E: the “ddG of mutation (higher = less stable)” value was 0.9 kcal/mol, the denaturant m value was found to be 2.8 kcal/mol/M, the “denaturant midpoint” value came to 1.2 M and the unfolding free energy was 3.5 kcal/mol.

In the case of K53E, the “ddG of mutation (higher = less stable)” value is -0.4 kcal/mol, the denaturant m value is 3 kcal/mol/M, the “denaturant midpoint” value came to 1.6 M and the unfolding free energy was 4.8 kcal/mol.

K35E K53E: the “ddG of mutation (higher = less stable)” value came out at 0.8 kcal/mol, the denaturant m value was 3 kcal/mol/M, the “denaturant midpoint” value turned out to be 1.2 M and the unfolding free energy is 3.6 kcal/mol.
